According to doi:10.1101/2023.07.18.549521 (bioRxiv, 2023):
One block for each binder: values may come before it.

B2: full-length tepsin-GST (residues 1-525) (natural protein)
chain: MAAAPPLRDRLSFLHRLPILLKGTSDDDVPCPGYLFEEIAKISHESPGSSQCLLEYLLSRLHSSSGHGKLKVLKILLYLCSHGSSFFLLILKRNSAFIQEAAAFAGPPDPLHGNSLYQKVRAAAQDLGSTLFSDTVLPLAPSQPLGTPPATGMGSQARPHSTLQGFGYSKEHGRTAVRHQPGQAGGGWDELDSGPSSQNSSQNSDLSRVSDSGSHSGSDSHSGASREPGDLAERVEVVALSDCQQELSLVRTVTRGPRAFLSREEAQHFIKACGLLNCEAVLQLLTCHLRGTSECTQLRALCAIASLGSSDLLPQEHILLRTRPWLQELSMGSPGPVTNKATKILRHFEASCGQLSPARGTSAEPGPTAALPGPSDLLTDAVPLPGSQVFLQPLSSTPVSSRSPAPSSGMPSSPVPTPPPDASPIPAPGDPSEAEARLAESRRWRPERIPGGTDSPKRGPSSCAWSRDSLFAGMELVACPRLVGAGAAAGESCPDAPRAPQTSSQRTAAKEPPGSEPSAFAFLNA

Key:
[1] = biological target: B2; test: pull-down
[2] = biological target: T1, His6x-LC3B (residues 1-120) (UniProt Q9GZQ8 1-120); test: ITC
[3] = biological target: T1, His6x-LC3B (residues 1-120); test: pull-down

binding result [1]: binds
B1: AP-4 β4 appendage domain (residues 615-739) (domain or fragment, UniProt Q9Y6B7 615-739, looked up)
chain: SGALMLVPNRQLTADYFEKTWLSLKVAHQQVLPWRGEFHPDTLQMALQVVNIQTIAMSRAGSRPWKAYLSAQDDTGCLFLTELLLEPGNSEMQISVKQNEARTETLNSFISVLETVIGTIEEIKS

Kd [2]: 44.4 µM
Binder: SGGGWDELDS [tepsin LIR motif peptide (residues 185-193)]

Binder: B2
binding result [3]: binds
